Results reported in the supplement of paper PMC10567573.

B1: ESRRG (parent)
chain: YSCPATNECEITKRRRKSCQACRF

Variants of: B1
Assay: protein stability index of a GFP-peptide fusion (GPS, HEK-293T) (PSI 1-6); higher = more stable
Conditions: c terminus: a fixed tail appended
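Further: lentivirally expressed fusions sorted by FACS into six bins by GFP to DsRed ratio, PSI derived from sequencing read proportions per bin multiplied by bin number.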

Protein stability index: each site, then its substitutions
C9: I 3.48 | Q 3.47 | L 3.08 | M 3.59 | S 3.66 | A 3.39 | W 2.54 | P 3.5 | T 3.61 | V 3.46 | R 3.38 | D 3.4 | N 3.18 | F 3.32 | G 3.82 | E 3.79 | Y 2.69
K17: C 4.5 | W 2.83 | Y 2.35 | Q 3.29 | P 2.9 | S 3 | N 3.25 | H 3.82 | T 2.92 | D 3.37 | I 3.51 | A 3.17 | E 3.63 | M 3.06
S2: V 2.23 | L 2.96 | Q 2.55 | G 3.58 | A 2.1 | M 3.27 | D 3.87 | W 2.33 | F 3 | T 2.85 | K 3.15 | P 2.98 | E 4.1
C3: L 3.53 | T 3.99 | G 3.44 | S 3.56 | D 3.72 | Y 3.81 | H 2.7 | A 4.23 | R 3.05 | N 3.79 | F 3.12 | M 3.55 | E 4.09 | V 4.16 | Q 3.62
S18: C 3.31 | L 3.19 | F 2.9 | I 3.16 | W 2.93 | P 3.66 | G 2.74 | Q 3.6 | K 3.51 | D 3.6 | N 3.44 | M 3.38 | T 3.59 | Y 2.87
E10: K 3.41 | I 2.8 | M 2.9 | A 3.27 | L 3.06 | Q 3.59 | S 3.14 | V 2.66 | D 3.34 | F 2.53 | T 3.27 | P 3.09 | H 3.08
R23: A 3.1 | M 3.04 | C 3.71 | T 3.01 | I 2.59 | D 3.88 | W 2.09 | E 4.02 | K 3.33 | H 2.96 | N 3.92 | L 2.73 | Y 3.3 | S 3.22 | V 2.46
C19: F 3.17 | N 3.82 | V 3.27 | P 3.35 | Q 3.78 | S 3.54 | I 2.94 | D 4.09 | A 3.83 | L 3.14 | M 3.42 | W 3.15 | G 3.55 | K 3.94 | Y 3.44
T6: S 3.1 | D 3.71 | L 3.1 | K 3.72 | E 3.37 | F 2.47 | C 3.76 | P 2.2 | M 3.38 | Q 3.42 | G 3.65 | V 3.1 | A 3.13 | H 3.65 | N 4.04
A21: C 3.66 | M 2.46 | V 3.2 | R 3.49 | Q 3.29 | S 3.23 | H 4.06 | N 3.41 | Y 3.16 | D 3.49 | T 3.47 | P 3.29
C22: Y 3.01 | T 3.58 | W 2.94 | P 3.86 | S 3.9 | L 3.71 | R 3.87 | I 3.42 | K 3.97 | E 3.49 | D 4.07 | G 3.38 | V 3.66 | H 3.5 | N 4.09
I11: S 3.63 | Y 3.04 | F 3.26 | V 3.25 | G 3.47 | Q 3.51 | L 2.88 | H 4.47 | K 3.25 | W 3.44 | M 3.14 | N 3.55
Y1: N 4.29 | R 4.21 | F 3.36 | T 4.35 | A 4.13 | I 3.6 | M 4.2 | D 4.05 | G 4.02 | E 4.13 | W 3.11 | L 4.09 | Q 4.19
R15: W 2.81 | Y 3.34 | E 3.37 | S 3.48 | G 3.91 | T 3.22 | M 2.96 | V 3.22 | A 3.33 | C 3.46
F24: I 3.67 | M 3.89 | G 4.18 | T 4.12 | Y 3.53 | R 3.41 | W 2.88 | A 4 | D 4.07 | E 4.19 | P 3.51 | Q 3.7 | V 4 | H 4.18
R14: H 4.23 | G 3.7 | P 3.13 | I 3.03 | K 3.52 | W 3.11 | E 3.62 | V 3.03 | L 2.81 | C 4.61 | D 3.76 | Y 3.17 | Q 3.48 | F 3.19 | A 3.51 | S 3.6
R16: Q 3.66 | F 2.92 | H 3.8 | G 3.66 | E 3.63 | S 3.8 | I 3.31 | T 3.96 | A 3.48 | Y 3 | M 3.07 | W 3.06
Q20: C 2.67 | K 3.92 | V 2.78 | E 3.62 | F 1.91 | S 3.02 | Y 2.81 | M 2.86 | R 3.49 | D 3.7 | H 2.67 | T 2.93 | W 2.21 | A 3.52
N7: M 2.96 | Q 3.36 | W 2.35 | Y 2.06 | P 3.55 | G 3.29 | R 3.56 | I 2.83 | T 3.61 | C 2.42 | E 3.19 | A 2.64
T12: A 3.32 | L 2.71 | K 3.27 | S 3.46 | V 3.33 | W 2.31 | Q 3.25 | G 3.41 | Y 2.69 | I 2.69 | H 4.38 | R 3.56 | E 3.75 | M 2.97
E8: C 3.12 | L 3.02 | I 2.87 | S 2.97 | D 2.92 | M 2.88 | G 3.54 | Q 3.52
K13: H 3.44 | A 3.28 | N 3.43 | Q 3.45 | E 3.45 | L 3.15 | G 3.16 | V 3.59 | I 3.15 | M 3.15 | C 3.56 | S 3.5
P4: S 3.11 | M 2.76 | W 1.47 | R 3.09 | E 3.2 | V 3.09 | K 3.18 | N 3.24 | Q 3.11 | Y 2.59 | D 3.48 | F 2.39 | A 3.03
A5: R 2.89 | P 3.12 | W 1.51 | S 3.33 | K 3.36 | T 2.78 | G 3.58 | N 3.27 | E 3.73 | Q 3.26 | H 3.73 | L 3.2
